# Laboratory results from PMC4453530.
# B1: F2.2L (TGEV GAIT-like RNA motif) (structured_RNA)
# RNA: AAUCUUAAAACUGUCAAUGACUUUAAUAUCUU
# Columns and labels:
# DDK/Myc tag peptide = target: T1, DDK/Myc tag peptide; test: EMSA
# T1 chain: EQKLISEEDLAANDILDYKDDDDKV
# [1] = target: EPRS purified recombinant (UniProt P07814 1-1512); test: EMSA
# EPRS purified recombinant, sequence (P07814 whole entry): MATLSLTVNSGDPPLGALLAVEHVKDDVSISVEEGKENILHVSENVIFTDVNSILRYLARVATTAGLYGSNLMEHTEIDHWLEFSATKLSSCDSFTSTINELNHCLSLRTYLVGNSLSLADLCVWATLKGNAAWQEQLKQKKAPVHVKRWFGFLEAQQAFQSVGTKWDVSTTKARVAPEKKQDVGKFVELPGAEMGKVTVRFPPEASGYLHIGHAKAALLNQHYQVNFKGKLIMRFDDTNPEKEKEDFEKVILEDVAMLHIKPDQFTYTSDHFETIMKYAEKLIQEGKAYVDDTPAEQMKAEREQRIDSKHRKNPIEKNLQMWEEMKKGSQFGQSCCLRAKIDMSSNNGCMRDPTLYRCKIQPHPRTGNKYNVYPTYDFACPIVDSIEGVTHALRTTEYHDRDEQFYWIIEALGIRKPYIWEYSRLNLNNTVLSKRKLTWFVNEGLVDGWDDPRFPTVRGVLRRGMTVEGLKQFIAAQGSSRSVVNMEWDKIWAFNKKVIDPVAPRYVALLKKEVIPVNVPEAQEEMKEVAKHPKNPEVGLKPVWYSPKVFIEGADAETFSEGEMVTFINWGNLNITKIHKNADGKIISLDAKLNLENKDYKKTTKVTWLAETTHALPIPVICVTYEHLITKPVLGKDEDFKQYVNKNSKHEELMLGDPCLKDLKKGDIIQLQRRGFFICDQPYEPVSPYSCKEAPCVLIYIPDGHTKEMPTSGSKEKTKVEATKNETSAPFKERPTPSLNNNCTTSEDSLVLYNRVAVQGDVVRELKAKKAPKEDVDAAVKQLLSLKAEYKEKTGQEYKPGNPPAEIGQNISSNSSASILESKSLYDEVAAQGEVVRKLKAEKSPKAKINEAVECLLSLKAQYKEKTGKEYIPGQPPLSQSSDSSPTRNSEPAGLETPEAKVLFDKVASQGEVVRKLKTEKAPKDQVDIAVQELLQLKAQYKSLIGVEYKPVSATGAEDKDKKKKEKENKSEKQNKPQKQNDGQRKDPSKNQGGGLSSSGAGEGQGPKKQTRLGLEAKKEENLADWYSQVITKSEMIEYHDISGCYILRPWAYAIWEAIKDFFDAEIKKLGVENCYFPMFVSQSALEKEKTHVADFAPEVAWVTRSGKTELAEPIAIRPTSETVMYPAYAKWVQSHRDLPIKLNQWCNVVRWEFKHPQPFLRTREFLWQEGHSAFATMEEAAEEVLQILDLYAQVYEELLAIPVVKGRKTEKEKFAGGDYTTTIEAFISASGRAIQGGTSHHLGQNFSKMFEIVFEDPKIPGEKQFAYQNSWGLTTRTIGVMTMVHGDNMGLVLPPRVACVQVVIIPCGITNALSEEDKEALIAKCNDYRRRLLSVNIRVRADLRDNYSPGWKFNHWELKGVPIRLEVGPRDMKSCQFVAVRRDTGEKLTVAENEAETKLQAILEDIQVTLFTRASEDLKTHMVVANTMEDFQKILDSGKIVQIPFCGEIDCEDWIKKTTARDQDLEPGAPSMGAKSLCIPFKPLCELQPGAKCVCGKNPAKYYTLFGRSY
binder,measurement,setting,value
B1,binding result,DDK/Myc tag peptide,no binding
same,binding result,[1],binds
